Paper PMC10699770 (Science Advances, 2023)

Molecular target: full-length NAIP5 with an N-terminal Flag tag (mouse, UniProt Q9R016 1-1403)
Assay: cryo-EM structure

full-length NAIP5 with an N-terminal Flag tag, sequence (Q9R016 whole entry): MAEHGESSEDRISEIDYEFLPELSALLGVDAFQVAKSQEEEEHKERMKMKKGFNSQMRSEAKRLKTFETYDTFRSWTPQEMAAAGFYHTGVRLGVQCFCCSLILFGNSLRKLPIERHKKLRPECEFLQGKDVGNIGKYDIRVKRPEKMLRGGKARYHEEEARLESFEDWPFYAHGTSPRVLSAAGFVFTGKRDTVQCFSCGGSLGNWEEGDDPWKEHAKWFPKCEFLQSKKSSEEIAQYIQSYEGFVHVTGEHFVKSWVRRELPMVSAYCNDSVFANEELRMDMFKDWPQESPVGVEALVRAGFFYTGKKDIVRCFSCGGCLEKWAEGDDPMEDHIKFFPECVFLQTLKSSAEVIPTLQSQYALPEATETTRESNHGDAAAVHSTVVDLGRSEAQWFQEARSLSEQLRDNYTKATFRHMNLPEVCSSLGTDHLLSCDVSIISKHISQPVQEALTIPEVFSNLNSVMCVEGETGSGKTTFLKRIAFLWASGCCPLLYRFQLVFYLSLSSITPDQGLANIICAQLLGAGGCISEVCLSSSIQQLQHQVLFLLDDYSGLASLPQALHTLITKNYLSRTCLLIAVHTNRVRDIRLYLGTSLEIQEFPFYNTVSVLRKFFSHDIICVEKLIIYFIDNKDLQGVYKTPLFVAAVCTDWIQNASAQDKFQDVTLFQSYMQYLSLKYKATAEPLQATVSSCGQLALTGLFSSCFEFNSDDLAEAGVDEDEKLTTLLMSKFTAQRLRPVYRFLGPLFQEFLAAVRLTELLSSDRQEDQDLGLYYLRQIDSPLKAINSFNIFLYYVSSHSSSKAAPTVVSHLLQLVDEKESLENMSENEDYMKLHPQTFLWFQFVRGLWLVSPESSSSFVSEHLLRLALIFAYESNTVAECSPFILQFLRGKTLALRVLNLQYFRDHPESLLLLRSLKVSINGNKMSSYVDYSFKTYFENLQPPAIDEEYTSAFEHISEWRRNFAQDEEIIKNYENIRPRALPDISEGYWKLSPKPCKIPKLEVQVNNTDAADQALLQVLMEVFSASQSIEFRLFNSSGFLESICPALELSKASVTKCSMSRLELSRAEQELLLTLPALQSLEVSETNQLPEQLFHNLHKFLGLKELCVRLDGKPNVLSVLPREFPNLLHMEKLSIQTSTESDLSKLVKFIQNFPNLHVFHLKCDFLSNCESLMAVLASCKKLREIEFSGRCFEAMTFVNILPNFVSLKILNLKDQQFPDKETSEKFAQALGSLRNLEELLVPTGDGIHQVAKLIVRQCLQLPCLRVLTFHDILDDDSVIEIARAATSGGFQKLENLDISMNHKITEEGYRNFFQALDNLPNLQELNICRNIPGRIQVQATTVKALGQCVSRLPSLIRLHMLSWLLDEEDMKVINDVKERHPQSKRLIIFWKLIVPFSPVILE

B1: full-length S. typhimurium flagellin FliC with N-terminal His tag (natural protein)
chain: MAQVINTNSLSLLTQNNLNKSQSALGTAIERLSSGLRINSAKDDAAGQAIANRFTANIKGLTQASRNANDGISIAQTTEGALNEINNNLQRVRELAVQSANSTNSQSDLDSIQAEITQRLNEIDRVSGQTQFNGVKVLAQDNTLTIQVGANDGETIDIDLKQINSQTLGLDTLNVQQKYKVSDTAATVTGYADTTIALDNSTFKASATGLGGTDQKIDGDLKFDDTTGKYYAKVTVTGGTGKDGYYEVSVDKTNGEVTLAGGATSPLTGGLPATATEDVKNVQVANADLTEAKAALTAAGVTGTASVVKMSYTDNNGKTIDGGLAVKVGDDYYSATQNKDGSISINTTKYTADDGTSKTALNKLGGADGKTEVVSIGGKTYAASKAEGHNFKAQPDLAEAAATTTENPLQKIDAALAQVDTLRSDLGAVQNRFNSAITNLGNTVNNLTSARSRIEDSDYATEVSNMSRAQILQQAGTSVLAQANQVPQNVLSLLR
B1: binds.
